Measurements taken from patent US20250218531A1 (ABSCI, published 2025).
Substitutions are numbered along the chain they refer to. Read-outs that look alike come from different tables or passages of the source.

Legend:
[1] = target: T1, human epidermal growth factor receptor 2 (HER2) extracellular domain (human, UniProt P04626 23-629); experiment: SPR, table row 9
[2] = target: T1, human epidermal growth factor receptor …; experiment: SPR, table row 21
[3] = target: T1, human epidermal growth factor receptor …; experiment: SPR, table row 27
[4] = target: T2, human vascular endothelial growth factor A (VEGF-A) (human, UniProt P15692 220-313); experiment: SPR, Fab format
T2 sequence: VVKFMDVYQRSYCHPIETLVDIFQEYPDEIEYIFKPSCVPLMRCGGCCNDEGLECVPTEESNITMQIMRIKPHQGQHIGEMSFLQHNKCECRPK

[5] = target: T1, human epidermal growth factor receptor …; experiment: SPR, table row 25
[6] = target: T1, human epidermal growth factor receptor …; experiment: SPR, table row 39
[7] = target: T1, human epidermal growth factor receptor …; experiment: SPR, table row 38
[8] = target: T1, human epidermal growth factor receptor …; experiment: SPR, table row 42
[9] = target: T1, human epidermal growth factor receptor …; experiment: SPR, table row 29
[10] = target: T1, human epidermal growth factor receptor …; experiment: SPR, table row 26
[11] = target: T1, human epidermal growth factor receptor …
[12] = target: T1, human epidermal growth factor receptor …; experiment: SPR, table row 3
[13] = target: T1, human epidermal growth factor receptor …; experiment: SPR, table row 33
[14] = target: T1, human epidermal growth factor receptor …; experiment: SPR, table row 7
[15] = target: T1, human epidermal growth factor receptor …; experiment: SPR, table row 34
[16] = target: T1, human epidermal growth factor receptor …; experiment: SPR, table row 30
[17] = target: T1, human epidermal growth factor receptor …; experiment: SPR, table row 32
[18] = target: T1, human epidermal growth factor receptor …; experiment: SPR, table row 35
[19] = target: T1, human epidermal growth factor receptor …; experiment: SPR, table row 4
[20] = target: T1, human epidermal growth factor receptor …; experiment: SPR, table row 18
[21] = target: T1, human epidermal growth factor receptor …; experiment: SPR, table row 40
[22] = target: T1, human epidermal growth factor receptor …; experiment: SPR, table row 28
[23] = target: T1, human epidermal growth factor receptor …; experiment: SPR, table row 8
[24] = target: T1, human epidermal growth factor receptor …; experiment: SPR, table row 10
[25] = target: T1, human epidermal growth factor receptor …; experiment: SPR, table row 5

B1: Trast_Her2_50 (Fab, V domains shown)
VH: EVQLVESGGGLVQPGGSLRLSCAASGFNIKDTYIHWVRQAPGKGLEWVARIYPTNGYTRYADSVKGRFTISADTSKNTAYLQMNSLRAEDTAVYYCAKGWGVEPREFAYWGQGTLVTVSS
VL: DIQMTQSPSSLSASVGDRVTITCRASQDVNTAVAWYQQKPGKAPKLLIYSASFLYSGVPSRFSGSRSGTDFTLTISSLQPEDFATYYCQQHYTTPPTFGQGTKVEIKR
notes: also called HCDR3 AKGWGVEPREFAY
**Q.** B1 was tested. Which Kd [1] did it give?
**A.** 2.71 nM

**Q.** What about the koff [1] of the same binder?
**A.** 4.19e-05 s⁻¹

**Q.** What about the kon [1] of the same binder?
**A.** 15500 M⁻¹ s⁻¹

B2: Trast_Her2_57 (Fab, V domains shown)
VH: B1 VH with G99P, W100Y, G101Y, V102Y, E103F, P104S, R105D, E106G, F107L, A108E
VL: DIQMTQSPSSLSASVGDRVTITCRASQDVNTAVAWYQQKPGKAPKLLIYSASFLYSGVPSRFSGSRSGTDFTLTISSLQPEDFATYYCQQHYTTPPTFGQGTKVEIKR
notes: also called HCDR3 AKPYYYFSDGLEY
**Q.** With B2 as the binder, how does the Kd [2] read?
**A.** 15.6 nM

**Q.** And the koff [2]?
**A.** 0.000321 s⁻¹

**Q.** What about the kon [2] of the same binder?
**A.** 20600 M⁻¹ s⁻¹

**Q.** What about the Kd [3] of the same binder?
**A.** 34.8 nM

**Q.** And the koff [3]?
**A.** 0.000581 s⁻¹

**Q.** And the kon [3]?
**A.** 16700 M⁻¹ s⁻¹

B3: De novo ranibizumab HCDR3 variant ASGNFSYPDDYGMDW (SEQ ID NO: 50) (Fab, V domains shown)
VH: EVQLVESGGGLVQPGGSLRLSCAASGYDFTHYGMNWVRQAPGKGLEWVGWINTYTGEPTYAADFKRRFTFSLDTSKSTAYLQMNSLRAEDTAVYYCASGNFSYPDDYGMDWWGQGTLVTVSS
VL: DIQLTQSPSSLSASVGDRVTITCSASQDISNYLNWYQQKPGKAPKVLIYFTSSLHSGVPSRFSGSGSGTDFTLTISSLQPEDFATYYCQQYSTVPWTFGQGTKVEIKR
**Q.** With B3 as the binder, how does the Kd [4] read?
**A.** 48.2 nM

B4: Trast_Her2_229 (Fab, V domains shown)
VH: EVQLVESGGGLVQPGGSLRLSCAASGFNIKDTYIHWVRQAPGKGLEWVARIYPTNGYTRYADSVKGRFTISADTSKNTAYLQMNSLRAEDTAVYYCARFDRYGYYLGTWGQGTLVTVSS
VL: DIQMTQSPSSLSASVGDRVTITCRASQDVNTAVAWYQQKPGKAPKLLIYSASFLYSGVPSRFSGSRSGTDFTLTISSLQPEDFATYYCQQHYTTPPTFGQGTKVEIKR
notes: also called HCDR3 ARFDRYGYYLGT
**Q.** For B4, which Kd [5] is on record?
**A.** 30.4 nM

**Q.** What about the koff [5] of the same binder?
**A.** 0.000635 s⁻¹

**Q.** What about the kon [5] of the same binder?
**A.** 20900 M⁻¹ s⁻¹

**Q.** And the Kd [6]?
**A.** 114 nM

**Q.** What about the koff [6] of the same binder?
**A.** 0.00201 s⁻¹

**Q.** And the kon [6]?
**A.** 17700 M⁻¹ s⁻¹

B5: Trast_Her2_230 (Fab, V domains shown)
VH: B4 VH
VL: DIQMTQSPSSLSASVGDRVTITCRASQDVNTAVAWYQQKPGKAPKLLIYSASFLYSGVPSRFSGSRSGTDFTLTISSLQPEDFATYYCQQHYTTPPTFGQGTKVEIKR
notes: as for B4
**Q.** B5 was tested. Which Kd [7] did it give?
**A.** 104 nM

**Q.** And the koff [7]?
**A.** 0.0023 s⁻¹

**Q.** And the kon [7]?
**A.** 22100 M⁻¹ s⁻¹

**Q.** What about the Kd [8] of the same binder?
**A.** 198 nM

**Q.** And the koff [8]?
**A.** 0.0046 s⁻¹

**Q.** What about the kon [8] of the same binder?
**A.** 23300 M⁻¹ s⁻¹

B6: Trast_Her2_58 (Fab, V domains shown)
VH: B4 VH with R98K, F99R, R101F, Y102G, G103R, Y104D, Y105W, L106F, G107A, T108Y
VL: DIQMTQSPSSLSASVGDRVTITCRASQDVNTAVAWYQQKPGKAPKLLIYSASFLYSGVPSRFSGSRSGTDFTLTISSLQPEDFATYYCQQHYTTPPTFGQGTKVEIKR
notes: also called HCDR3 AKRDFGRDWFAY
**Q.** Which Kd [9] does the source give for B6 here?
**A.** 38.8 nM

**Q.** And the koff [9]?
**A.** 0.000582 s⁻¹

**Q.** What about the kon [9] of the same binder?
**A.** 15000 M⁻¹ s⁻¹

B7: Trast_Her2_70 (Fab, V domains shown)
VH: B4 VH with R98K, F99Y, R101Y, G103I, Y105D, L106F, G107D, T108I
VL: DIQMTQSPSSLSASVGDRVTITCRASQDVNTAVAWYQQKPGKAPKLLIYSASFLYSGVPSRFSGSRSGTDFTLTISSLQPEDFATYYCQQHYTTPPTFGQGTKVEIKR
notes: also called HCDR3 AKYDYYIYDFDI
**Q.** How did the Kd [10] turn out when B7 was run?
**A.** 30.5 nM

**Q.** And the koff [10]?
**A.** 0.000284 s⁻¹

**Q.** And the kon [10]?
**A.** 9320 M⁻¹ s⁻¹

**Q.** What about the Kd [11] of the same binder?
**A.** 19.4 nM

**Q.** And the koff [11]?
**A.** 0.000369 s⁻¹

**Q.** And the kon [11]?
**A.** 19000 M⁻¹ s⁻¹

B8: Trast_Her2_52 (Fab, V domains shown)
VH: B4 VH with R98K, F99I, D100S, G103Y, Y105G, L106M, G107D, T108Y
VL: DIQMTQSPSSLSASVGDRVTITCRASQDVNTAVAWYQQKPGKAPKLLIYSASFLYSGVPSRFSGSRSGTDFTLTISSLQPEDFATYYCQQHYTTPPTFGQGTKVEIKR
notes: also called HCDR3 AKISRYYYGMDY
**Q.** For B8, which Kd [12] is on record?
**A.** 0.929 nM

**Q.** What about the koff [12] of the same binder?
**A.** 1e-05 s⁻¹

**Q.** What about the kon [12] of the same binder?
**A.** 10800 M⁻¹ s⁻¹

**Q.** And the Kd [11]?
**A.** 9.01 nM

**Q.** And the koff [11]?
**A.** 0.000127 s⁻¹

**Q.** And the kon [11]?
**A.** 14100 M⁻¹ s⁻¹

B9: Trast_Her2_56 (Fab, V domains shown)
VH: B4 VH with R98K, F99P, D100Y, R101Y, Y102F, G103N, Y105D, T108V
VL: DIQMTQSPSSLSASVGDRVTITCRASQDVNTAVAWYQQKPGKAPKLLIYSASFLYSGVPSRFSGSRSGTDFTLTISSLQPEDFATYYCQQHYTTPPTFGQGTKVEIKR
notes: also called HCDR3 AKPYYFNYDLGV
**Q.** How did the Kd [13] turn out when B9 was run?
**A.** 56.8 nM

**Q.** And the koff [13]?
**A.** 0.000933 s⁻¹

**Q.** What about the kon [13] of the same binder?
**A.** 16400 M⁻¹ s⁻¹

**Q.** What about the Kd [14] of the same binder?
**A.** 2.44 nM

**Q.** And the koff [14]?
**A.** 2.42e-05 s⁻¹

**Q.** What about the kon [14] of the same binder?
**A.** 9940 M⁻¹ s⁻¹

B10: Trast_Her2_231 (Fab, V domains shown)
VH: B4 VH with D100G, R101I, Y102S, L106W, G107D, T108V
VL: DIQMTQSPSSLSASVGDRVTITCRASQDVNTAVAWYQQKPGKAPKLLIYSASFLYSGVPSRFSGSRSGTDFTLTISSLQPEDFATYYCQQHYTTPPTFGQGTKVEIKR
notes: also called HCDR3 ARFGISGYYWDV
**Q.** With B10 as the binder, how does the Kd [15] read?
**A.** 64.4 nM

**Q.** And the koff [15]?
**A.** 0.0014 s⁻¹

**Q.** What about the kon [15] of the same binder?
**A.** 21800 M⁻¹ s⁻¹

**Q.** And the Kd [16]?
**A.** 43.3 nM

**Q.** What about the koff [16] of the same binder?
**A.** 0.00106 s⁻¹

**Q.** What about the kon [16] of the same binder?
**A.** 24500 M⁻¹ s⁻¹

B11: Trast_Her2_59 (Fab, V domains shown)
VH: B4 VH with R98K, F99R, D100N, R101A, G103R, Y104G, Y105S, G107D, T108Y
VL: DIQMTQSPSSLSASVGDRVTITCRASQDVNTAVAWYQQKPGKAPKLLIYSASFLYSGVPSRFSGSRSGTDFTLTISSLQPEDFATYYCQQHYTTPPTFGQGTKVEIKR
notes: also called HCDR3 AKRNAYRGSLDY
**Q.** Which results are given for B11?
**A.** Kd [17]: 51.1 nM; koff [17]: 0.000717 s⁻¹; kon [17]: 14000 M⁻¹ s⁻¹; Kd [18]: 64.9 nM; koff [18]: 0.00077 s⁻¹; kon [18]: 11900 M⁻¹ s⁻¹

B12: Trast_Her2_131 (Fab, V domains shown)
VH: EVQLVESGGGLVQPGGSLRLSCAASGFNIKDTYIHWVRQAPGKGLEWVARIYPTNGYTRYADSVKGRFTISADTSKNTAYLQMNSLRAEDTAVYYCARDGRYGYQDYWGQGTLVTVSS
VL: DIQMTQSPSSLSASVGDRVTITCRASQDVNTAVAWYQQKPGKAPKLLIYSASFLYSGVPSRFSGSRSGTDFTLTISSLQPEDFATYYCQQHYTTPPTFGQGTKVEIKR
notes: also called HCDR3 ARDGRYGYQDY
**Q.** For B12, which Kd [19] is on record?
**A.** 1 nM

**Q.** What about the koff [19] of the same binder?
**A.** 1e-05 s⁻¹

**Q.** What about the kon [19] of the same binder?
**A.** 9990 M⁻¹ s⁻¹

**Q.** What about the Kd [20] of the same binder?
**A.** 8.06 nM

**Q.** And the koff [20]?
**A.** 0.000202 s⁻¹

**Q.** And the kon [20]?
**A.** 25000 M⁻¹ s⁻¹

B13: Trast_Her2_76 (Fab, V domains shown)
VH: B12 VH with R98M, G100F, R101K, Y102F, G103T, Y104R, Q105L, Y107L
VL: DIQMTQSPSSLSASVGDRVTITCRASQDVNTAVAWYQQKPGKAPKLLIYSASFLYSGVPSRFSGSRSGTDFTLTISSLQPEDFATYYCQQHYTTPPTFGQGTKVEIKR
notes: also called HCDR3 AMDFKFTRLDL
**Q.** Which Kd [21] does the source give for B13 here?
**A.** 159 nM

**Q.** And the koff [21]?
**A.** 0.00525 s⁻¹

**Q.** What about the kon [21] of the same binder?
**A.** 33100 M⁻¹ s⁻¹

**Q.** What about the Kd [22] of the same binder?
**A.** 36.4 nM

**Q.** What about the koff [22] of the same binder?
**A.** 0.00127 s⁻¹

**Q.** And the kon [22]?
**A.** 35000 M⁻¹ s⁻¹

B14: Trast_Her2_54 (Fab, V domains shown)
VH: B12 VH with R98K, D99N, G100F, R101L, Y102I, Y104T, Q105R, D106Y, Y107W
VL: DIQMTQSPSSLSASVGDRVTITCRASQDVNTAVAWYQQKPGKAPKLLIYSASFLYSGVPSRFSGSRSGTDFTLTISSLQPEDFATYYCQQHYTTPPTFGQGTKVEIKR
notes: also called HCDR3 AKNFLIGTRYW
**Q.** B14 was tested. Which Kd [23] did it give?
**A.** 2.68 nM

**Q.** What about the koff [23] of the same binder?
**A.** 4.11e-05 s⁻¹

**Q.** What about the kon [23] of the same binder?
**A.** 15400 M⁻¹ s⁻¹

B15: Trast_Her2_51 (Fab, V domains shown)
VH: B12 VH with R98K, D99H, G100Y, R101D, Y102G, G103W, Y104I, Q105L, D106A
VL: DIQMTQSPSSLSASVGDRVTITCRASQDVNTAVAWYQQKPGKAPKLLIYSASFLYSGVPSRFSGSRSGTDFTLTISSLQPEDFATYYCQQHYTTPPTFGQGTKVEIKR
notes: also called HCDR3 AKHYDGWILAY
**Q.** Which results are given for B15?
**A.** Kd [24]: 2.89 nM; koff [24]: 4.35e-05 s⁻¹; kon [24]: 15100 M⁻¹ s⁻¹; Kd [25]: 1.03 nM; koff [25]: 1e-05 s⁻¹; kon [25]: 9680 M⁻¹ s⁻¹
